Data taken from paper PMC5103180.
pKd: −log10 of the molar value.

How the values were obtained:
[1] = molecular target: ATS‐C fragment of PfEMP1 variant PFL0030c (VAR2CSA) (Plasmodium falciparum); assay: fluorescence polarisation; 500 nM 5-FAM-labelled ATS-C variants titrated with unlabelled PFE1605w PHIST domain; 20°C; 50 mM NaCl, 20 mM Na2HPO4 pH 6.5; single-site model
[2] = molecular target: PFE1605w‐C (Plasmodium falciparum); assay: fluorescence polarisation; 0.5 μM 5-FAM-labelled PFE1605w-C titrated with unlabelled band 3 cytosolic domain (or BSA as negative control); 20°C; 50 mM NaCl, 20 mM Na2HPO4 pH 7.0; single-site model

Substance | pKd [1] | pKd [2]
PFE1605w PHIST domain (domain or fragment) | 4.05 | –
band 3 cytosolic domain (from UniProt P02730 1-379) (domain or fragment) | – | 5.82
